From US20180111975

Assays:
Assay in all cases: cell_activity
ZFN 51463 (synthetic) = conditions: paired with 51536, CD34+ cells
ZFN 51446 (synthetic) = conditions: paired with 51536, CD34+ cells
ZFN 51477 (synthetic) = conditions: paired with 51536, CD34+ cells
ZFN 51484 (synthetic) = conditions: paired with 51536, CD34+ cells
ZFN 51478 (synthetic) = conditions: paired with 51536, CD34+ cells
ZFN 51487 (synthetic) = conditions: paired with 51536, CD34+ cells
ZFN 51862 (synthetic) = conditions: paired with 51949, CD34+ cells, 500 ng mRNA each
ZFN 46801 (synthetic) = conditions: paired with 47923, K562, 25 ng each
ZFN 51856 (synthetic) = conditions: paired with 51949, CD34+ cells, 500 ng mRNA each
ZFN 51979 (synthetic) = conditions: paired with 51857, CD34+ cells, 500 ng mRNA each
ZFN 51535 (synthetic) = conditions: paired with 51446, CD34+ cells
ZFN 51534 (synthetic) = conditions: paired with 51446, CD34+ cells
ZFN 52015 (synthetic) = conditions: paired with 51857, CD34+ cells, 500 ng mRNA each
ZFN 51982 (synthetic) = conditions: paired with 51857, CD34+ cells, 500 ng mRNA each
ZFN 51556 (synthetic) = conditions: paired with 51446, CD34+ cells
ZFN 51541 (synthetic) = conditions: paired with 51446, CD34+ cells
ZFN 51993 (synthetic) = conditions: paired with 51857, CD34+ cells, 500 ng mRNA each
ZFN 51536 (synthetic) = conditions: paired with 51446, CD34+ cells
ZFN 47923 (synthetic) = conditions: paired with 46801, K562, 25 ng each
ZFN 52032 (synthetic) = conditions: paired with 51857, CD34+ cells, 500 ng mRNA each
ZFN 51990 (synthetic) = conditions: paired with 51857, CD34+ cells, 500 ng mRNA each
ZFN 51519 (synthetic) = conditions: paired with 51446, CD34+ cells

**Q.** How did the activity (ZFN 51463 (synthetic)) turn out when “AAAGCAACTGTTAGCTTGCACTAGACTA (double strand) [BCL11A +58 enhancer left half-site, 4-finger]” was run?
**A.** 82.7 % indels

**Q.** And the activity (ZFN 51446 (synthetic))?
**A.** 83.7 % indels

**Q.** With “AAAGCAACTGTTAGCTTGCACTAGACTA (double strand) [BCL11A +58 enhancer left half-site, 6-finger]” as the sequence, how does the activity (ZFN 51477 (synthetic)) read?
**A.** 72 % indels

**Q.** And the activity (ZFN 51484 (synthetic))?
**A.** 75.2 % indels

**Q.** And the activity (ZFN 51478 (synthetic))?
**A.** 72.3 % indels

**Q.** And the activity (ZFN 51487 (synthetic))?
**A.** 66.3 % indels

**Q.** And the activity (ZFN 51862 (synthetic))?
**A.** 18.4 % indels

**Q.** What about the activity (ZFN 46801 (synthetic)) of the same sequence?
**A.** 9.3 % NHEJ

**Q.** What about the activity (ZFN 51856 (synthetic)) of the same sequence?
**A.** 38.4 % indels

**Q.** For “CACAGGCTCCAGGAAGGGTTTGGCCTCT (double strand) [BCL11A +58 enhancer right half-site]”, which activity (ZFN 51979 (synthetic)) is on record?
**A.** 39.8 % indels

**Q.** And the activity (ZFN 51535 (synthetic))?
**A.** 82.2 % indels

**Q.** What about the activity (ZFN 51534 (synthetic)) of the same sequence?
**A.** 84.2 % indels

**Q.** What about the activity (ZFN 52015 (synthetic)) of the same sequence?
**A.** 35.2 % indels

**Q.** And the activity (ZFN 51982 (synthetic))?
**A.** 30.9 % indels

**Q.** What about the activity (ZFN 51556 (synthetic)) of the same sequence?
**A.** 74.1 % indels

**Q.** And the activity (ZFN 51541 (synthetic))?
**A.** 87.8 % indels

**Q.** What about the activity (ZFN 51993 (synthetic)) of the same sequence?
**A.** 43.9 % indels

**Q.** And the activity (ZFN 51536 (synthetic))?
**A.** 83.7 % indels

**Q.** What about the activity (ZFN 47923 (synthetic)) of the same sequence?
**A.** 9.3 % NHEJ

**Q.** And the activity (ZFN 52032 (synthetic))?
**A.** 53.9 % indels

**Q.** What about the activity (ZFN 51990 (synthetic)) of the same sequence?
**A.** 51 % indels

**Q.** And the activity (ZFN 51519 (synthetic))?
**A.** 81.5 % indels
